Test results published in patent US20200024330A1.

Columns and labels:
Assay in all cases: cell-based or functional assay
[1] = target: HIV-1 Env of isolate CMU02 (HIV-1)
[2] = target: HIV-1 92RW024 envelope glycoprotein (Env) on pseudovirus (HIV-1)
[3] = target: HIV-1 Env of isolate MGRM-G-014 (clade G pseudovirus) (HIV-1)
[4] = target: HIV-1 Env of pseudovirus APV_6, clade B (HIV-1)
[5] = target: HIV-1 Env of isolate MGRM-G-016 (clade G pseudovirus) (HIV-1)
[6] = target: HIV-1 Env of isolate MGRM-D-004 (clade D) (HIV-1)
[7] = target: HIV-1 MGRM-C-007 Env (HIV-1)
[8] = target: HIV-1 94UG103 envelope glycoprotein (Env) on pseudovirus (HIV-1)
[9] = target: HIV-1 CMU02 envelope glycoprotein (Env) on pseudovirus (HIV-1)
[10] = target: HIV-1 Env of isolate 92UG046 (clade D) (HIV-1)
[11] = target: HIV-1 Env of isolate MGRM-D-008 (clade D) (HIV-1)
[12] = target: HIV-1 Env of pseudovirus APV_17, clade B (HIV-1)
[13] = target: HIV-1 MGRM-C-009 Env (HIV-1)
[14] = target: HIV-1 MGRM-C-017 Env (HIV-1)
[15] = target: HIV-1 Env of isolate MGRM-D-016 (clade D) (HIV-1)
[16] = target: HIV-1 Env of isolate MGRM-C-023 (pseudovirus) (HIV-1 isolate MGRM-C-023, subtype C)
[17] = target: HIV-1 JRCSF Env (pseudovirus) (HIV-1) (UniProt P20871)
[18] = target: HIV-1 Env of isolate MG RM-AG-009 (HIV-1)
[19] = target: HIV-1 THR0.18 Env (pseudovirus) (HIV-1)
[20] = target: HIV-1 Env of isolate MG RM-D-012 (subtype D) (HIV-1)
[21] = target: HIV-1 Env of isolate 98CN006 (subtype CRF08 BC) (HIV-1)
[22] = target: HIV-1 JR-CSF Env N156A (HIV-1 (isolate JR-CSF)) (UniProt P20871)
[23] = target: HIV-1 MGRM-Chronic-B-002 Env (pseudovirus) (HIV-1)
[24] = target: HIV-1 Env of isolate MGRM-F1-010 (subtype F) (HIV-1)
[25] = target: HIV-1 Env of isolate MG RM-D-018 (subtype D) (HIV-1)
[26] = target: HIV-1 JR-CSF Env D185A (HIV-1 (isolate JR-CSF)) (UniProt P20871)
[27] = target: HIV-1 Env of isolate MGRM-C-024 (pseudovirus) (HIV-1 isolate MGRM-C-024, subtype C)
[28] = target: HIV-1 JR-CSF Env I165A (HIV-1 (isolate JR-CSF)) (UniProt P20871)
[29] = target: HIV-1 JR-CSF Env T162A (HIV-1 (isolate JR-CSF)) (UniProt P20871)
[30] = target: HIV-1 Env of isolate MG RM-D-002 (subtype D) (HIV-1)

Chain of 1443_C16 (PG16) (TCN-116) (antibody) (VH): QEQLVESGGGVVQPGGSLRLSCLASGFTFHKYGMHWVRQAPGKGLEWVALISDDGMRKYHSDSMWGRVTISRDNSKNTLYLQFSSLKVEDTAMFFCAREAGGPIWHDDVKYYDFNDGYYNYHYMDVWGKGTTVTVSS
Chain of 1443_C16 (PG16) (TCN-116) (antibody) (VL): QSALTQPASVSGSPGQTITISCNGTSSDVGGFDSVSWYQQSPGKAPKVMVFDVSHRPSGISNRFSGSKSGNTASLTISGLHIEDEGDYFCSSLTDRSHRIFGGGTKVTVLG

Row | Substance | IC50 (µg/ml), pseudovirus neutralization [1] [µg/mL] | IC50 (µg/ml), pseudovirus neutralization [2] [µg/mL] | IC50 (µg/ml), pseudovirus neutralization [3] [µg/mL] | IC50 (µg/ml), pseudovirus neutralization [4] [µg/mL] | IC50 (µg/ml), pseudovirus neutralization [5] [µg/mL] | IC50 (µg/ml), pseudovirus neutralization [6] [µg/mL] | IC50 [7] [µg/mL] | IC90 (pseudovirus neutralization) [8] [µg/mL] | IC90 (pseudovirus neutralization) [9] [µg/mL] | IC50 (µg/ml), pseudovirus neutralization [10] [µg/mL] | IC50 (µg/ml), pseudovirus neutralization [11] [µg/mL] | IC50 (µg/ml), pseudovirus neutralization [12] [µg/mL] | IC50 [13] [µg/mL] | IC50 [14] [µg/mL] | IC50 (µg/ml), pseudovirus neutralization [15] [µg/mL] | IC50 (µg/mL) neutralization [16] [µg/mL] | IC50, pseudovirus neutralization [17] [µg/mL] | neutralization IC50 [18] [µg/mL] | IC50, pseudovirus neutralization [19] [µg/mL] | IC50 (µg/mL), pseudovirus neutralization [20] [µg/mL] | other results
1 | 4E10 (antibody) | 0.72 | 8.88 | 13.7 | 1.1 | 1.02 | 1.58 | 5.84 | > 50 | 13.4 | 12.2 | 42.9 | 10.5 | 0.56 | 1.47 | 15.4 | – | – | – | – | – | –
2 | 2F5 (antibody) | 0.6 | 8.22 | 9.65 | 0.25 | 16.8 | 2.3 | > 50 | 46.6 | 12.2 | > 50 | > 50 | 4.61 | > 50 | > 50 | 9.85 | – | – | – | – | – | –
3 | 5123_A06 (PGT-125) (antibody) | – | – | – | – | – | – | – | – | – | – | – | – | – | – | – | 1.31 | 0.004 | 0.026 | > 50 | > 50 | IC50 (µg/mL), pseudovirus neutralization [21]: 0.201 µg/mL; Fold IC50 increase relative to wild-type [22]: 3.6 fold; IC50 (ug/ml), neutralizing activity [8]: 0.0124 µg/mL; neutralization IC50 [8]: 0.0124 µg/mL; neutralization IC80 [8]: 0.0373 µg/mL; neutralization IC90 [8]: 0.071 µg/mL; neutralization IC95 [8]: 0.129 µg/mL; IC50 (ug/ml), neutralizing activity [9]: > 10 µg/mL; neutralization IC50 [9]: > 10 µg/mL; neutralization IC80 [9]: > 10 µg/mL; neutralization IC90 [9]: > 10 µg/mL; neutralization IC95 [9]: > 10 µg/mL; IC50, pseudovirus neutralization [23]: 0.064 µg/mL; IC50 (µg/mL), pseudovirus neutralization [24]: > 50 µg/mL; IC50 (µg/mL), pseudovirus neutralization [25]: > 50 µg/mL; Fold IC50 increase relative to wild-type [26]: 0.6 fold; IC50 (µg/mL) neutralization [27]: > 50 µg/mL; Fold IC50 increase relative to wild-type [28]: 2.3 fold; Fold IC50 increase relative to wild-type [29]: 0.5 fold; IC50 (µg/mL), pseudovirus neutralization [30]: 0.118 µg/mL
4 | 2G12 (antibody) | > 50 | > 50 | > 50 | 1.9 | > 50 | > 50 | > 50 | > 50 | > 50 | > 50 | > 50 | > 50 | > 50 | > 50 | > 50 | – | – | – | – | – | –
5 | 5141_B17 (PGT-126) (antibody) | – | – | – | – | – | – | – | – | – | – | – | – | – | – | – | 0.065 | 0.008 | 0.03 | > 50 | > 50 | IC50 [17]: 0.0061 µg/mL; IC80 [17]: 0.018 µg/mL; IC90 [17]: 0.0339 µg/mL; IC95 [17]: 0.0608 µg/mL; IC50 (µg/mL), pseudovirus neutralization [21]: 0.046 µg/mL; Fold IC50 increase relative to wild-type [22]: 1.8 fold; IC50 (ug/ml), neutralizing activity [8]: 0.0091 µg/mL; IC50 (ug/ml), neutralizing activity [9]: > 10 µg/mL; IC50, pseudovirus neutralization [23]: 0.078 µg/mL; IC50 (µg/mL), pseudovirus neutralization [24]: > 50 µg/mL; IC50 (µg/mL), pseudovirus neutralization [25]: 0.009 µg/mL; Fold IC50 increase relative to wild-type [26]: 1 fold; IC50 (µg/mL) neutralization [27]: > 50 µg/mL; Fold IC50 increase relative to wild-type [28]: 2.5 fold; Fold IC50 increase relative to wild-type [29]: 0.6 fold; IC50 (µg/mL), pseudovirus neutralization [30]: 0.039 µg/mL
6 | 4858_P08 (PGT-123) (antibody) | – | – | – | – | – | – | – | 8.56 | > 10 | – | – | – | – | – | – | 0.011 | 0.046 | 0.073 | > 50 | > 50 | IC50 (µg/mL), pseudovirus neutralization [21]: 0.008 µg/mL; Fold IC50 increase relative to wild-type [22]: 6.2 fold; IC50 (ug/ml), neutralizing activity [8]: 0.846 µg/mL; IC50, pseudovirus neutralization [8]: 0.846 µg/mL; IC80, pseudovirus neutralization [8]: 3.29 µg/mL; IC95, pseudovirus neutralization [8]: > 10 µg/mL; IC50 (ug/ml), neutralizing activity [9]: > 10 µg/mL; IC50, pseudovirus neutralization [9]: > 10 µg/mL; IC80, pseudovirus neutralization [9]: > 10 µg/mL; IC95, pseudovirus neutralization [9]: > 10 µg/mL; IC50, pseudovirus neutralization [23]: 0.234 µg/mL; IC50 (µg/mL), pseudovirus neutralization [24]: 0.016 µg/mL; IC50 (µg/mL), pseudovirus neutralization [25]: 0.007 µg/mL; Fold IC50 increase relative to wild-type [26]: 1.9 fold; IC50 (µg/mL) neutralization [27]: 0.195 µg/mL; Fold IC50 increase relative to wild-type [28]: 2.2 fold; Fold IC50 increase relative to wild-type [29]: 0.7 fold; IC50 (µg/mL), pseudovirus neutralization [30]: 0.012 µg/mL
7 | 5145_B14 (PGT-127) (antibody) | – | – | – | – | – | – | – | – | – | – | – | – | – | – | – | 1.08 | 0.018 | 0.059 | > 50 | > 50 | IC50 (µg/mL), pseudovirus neutralization [21]: 0.067 µg/mL; Fold IC50 increase relative to wild-type [22]: 1.6 fold; IC50, pseudovirus neutralization [23]: 0.279 µg/mL; IC50 (µg/mL), pseudovirus neutralization [24]: > 50 µg/mL; IC50 (µg/mL), pseudovirus neutralization [25]: 0.021 µg/mL; Fold IC50 increase relative to wild-type [26]: 2 fold; IC50 (µg/mL) neutralization [27]: > 50 µg/mL; Fold IC50 increase relative to wild-type [28]: 1.7 fold; Fold IC50 increase relative to wild-type [29]: 1.1 fold; IC50 (µg/mL), pseudovirus neutralization [30]: 0.6 µg/mL
8 | b12 (antibody) | 29.3 | > 50 | > 50 | > 50 | > 50 | > 50 | > 50 | 47.3 | 34.2 | 0.07 | > 50 | > 50 | > 50 | > 50 | 1.12 | – | – | – | – | – | –
9 | 1443_C16 (PG16) (TCN-116) (antibody) | 43.6 | 0.08 | 6.98 | 0.29 | 11.3 | 0.01 | 0.05 | 1.59 | > 50 | 1.42 | > 50 | 24.8 | > 50 | 1.8 | 0.02 | – | – | – | – | – | –
10 | 1495_C14 (PGC14) (antibody) | > 50 | > 50 | > 50 | 23 | > 50 | > 50 | > 50 | – | – | > 50 | > 50 | > 50 | > 50 | > 50 | > 50 | – | – | – | – | – | –
